We go through one substance from paper PMC2139825.

A word on the Kd: it is the equilibrium constant for the complex coming apart. Read a low Kd as tighter binding.

The target in this experiment is bacterially expressed full-length chicken CRP1 (chicken) (UniProt P67966). In words: radioligand binding.
UniProt P67966, sequence (P67966 whole entry): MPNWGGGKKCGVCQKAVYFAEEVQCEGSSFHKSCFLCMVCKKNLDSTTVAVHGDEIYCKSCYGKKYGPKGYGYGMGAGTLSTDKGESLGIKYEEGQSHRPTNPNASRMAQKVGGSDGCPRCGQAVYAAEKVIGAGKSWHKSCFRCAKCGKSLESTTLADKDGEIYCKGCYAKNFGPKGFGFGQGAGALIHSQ

Substance “α-actinin (avian smooth muscle) (from UniProt P05094 1-893) (natural protein)” returned a Kd of 1.8 µM and a cpm bound specifically (0.26 pmoles [125I]α-actinin in 120 μl, no competitor) of 3080 cpm.
